Results taken from US11504441B2, “Radiolabeled compounds targeting the prostate-specific membrane antigen” (PROVINCIAL HEALTH SERVICES AUTHORITY, priority 2019, dated 2022).

Experiments:
in vivo [1] = conditions: male, NODSCID 1L2RγKO, mouse, iv, total radioactivity
in vivo [2] = test: in vivo; parameters: species or system mice; conditions: male, NODSCID 1L2RγKO, mouse, iv, total radioactivity
[3] = tested on: PSMA-expressing LNCaP cancer xenografts; conditions: mouse, in vivo

O=C(O)CC[C@H](NC(=O)N[C@@H](CCCCNC(=O)[C@H](Cc1c2ccccc2cc2ccccc12)NC(=O)C1CCC(CNC(=O)CN2CCN(CC(=O)O)CCN(CC(=O)O)CCN(CC(=O)O)CC2)CC1)C(=O)O)C(=O)O (stereo partly shown) [HTK03041]
tissue uptake at 1 h (in vivo [1]; kidney uptake): 170 %ID/g

COc1ccc(CCCC(=O)NCC(=O)N[C@@H](CCCCNC(=O)CN2CCN(CC(=O)O)CCN(CC(=O)O)CCN(CC(=O)O)CC2)C(=O)NC[C@H]2CC[C@H](C(=O)N[C@@H](Cc3c4ccccc4cc4ccccc34)C(=O)NCCCC[C@H](NC(=O)N[C@@H](COCC(=O)O)C(=O)O)C(=O)O)CC2)cc1 [177Lu-HTK04028, metal not drawn]
tissue uptake at 1 h (in vivo [2]; Adrenal glands uptake): 3.25 ± 0.34 %ID/g | tissue uptake at 4 h (in vivo [2]; Adrenal glands uptake): 2.18 ± 0.33 %ID/g | tissue uptake at 24 h (in vivo [2]; Adrenal glands uptake): 0.73 ± 0.13 %ID/g | tissue uptake at 72 h (in vivo [2]; Adrenal glands uptake): 0.48 ± 0.17 %ID/g | tissue uptake at 120 h (in vivo [2]; Adrenal glands uptake): 0.33 ± 0.05 %ID/g | tissue uptake at 1 h (in vivo [2]; Blood uptake): 17.7 ± 2.1 %ID/g | tissue uptake at 4 h (in vivo [2]; Blood uptake): 12.2 ± 1.66 %ID/g | tissue uptake at 24 h (in vivo [2]; Blood uptake): 0.82 ± 0.11 %ID/g | tissue uptake at 72 h (in vivo [2]; Blood uptake): 0.05 ± 0.01 %ID/g | tissue uptake at 120 h (in vivo [2]; Blood uptake): 0.02 %ID/g | tissue uptake at 1 h (in vivo [2]; Bone uptake): 0.99 ± 0.21 %ID/g | tissue uptake at 4 h (in vivo [2]; Bone uptake): 0.63 ± 0.1 %ID/g | tissue uptake at 24 h (in vivo [2]; Bone uptake): 0.11 ± 0.02 %ID/g | tissue uptake at 72 h (in vivo [2]; Bone uptake): 0.05 ± 0.02 %ID/g | tissue uptake at 120 h (in vivo [2]; Bone uptake): 0.04 ± 0.02 %ID/g | tissue uptake at 1 h (in vivo [2]; Brain uptake): 0.26 ± 0.03 %ID/g | tissue uptake at 4 h (in vivo [2]; Brain uptake): 0.19 ± 0.02 %ID/g | tissue uptake at 24 h (in vivo [2]; Brain uptake): 0.02 %ID/g | tissue uptake at 72 h (in vivo [2]; Brain uptake): 0.01 %ID/g | tissue uptake at 1 h (in vivo [2]; Fat uptake): 1.26 ± 0.21 %ID/g | tissue uptake at 4 h (in vivo [2]; Fat uptake): 0.89 ± 0.24 %ID/g | tissue uptake at 24 h (in vivo [2]; Fat uptake): 0.14 ± 0.02 %ID/g | tissue uptake at 72 h (in vivo [2]; Fat uptake): 0.06 ± 0.02 %ID/g | tissue uptake at 120 h (in vivo [2]; Fat uptake): 0.03 ± 0.01 %ID/g | tissue uptake at 1 h (in vivo [2]; Heart uptake): 4.15 ± 0.31 %ID/g | tissue uptake at 4 h (in vivo [2]; Heart uptake): 2.67 ± 0.31 %ID/g | tissue uptake at 24 h (in vivo [2]; Heart uptake): 0.36 ± 0.03 %ID/g | tissue uptake at 72 h (in vivo [2]; Heart uptake): 0.12 ± 0.03 %ID/g | tissue uptake at 120 h (in vivo [2]; Heart uptake): 0.07 ± 0.01 %ID/g | tissue uptake at 1 h (in vivo [2]; Intestine uptake): 1.23 ± 0.24 %ID/g | tissue uptake at 4 h (in vivo [2]; Intestine uptake): 1.04 ± 0.12 %ID/g | tissue uptake at 24 h (in vivo [2]; Intestine uptake): 0.23 ± 0.05 %ID/g | tissue uptake at 72 h (in vivo [2]; Intestine uptake): 0.07 ± 0.03 %ID/g | tissue uptake at 120 h (in vivo [2]; Intestine uptake): 0.08 ± 0.05 %ID/g | tissue uptake at 1 h (in vivo [2]; Kidneys uptake): 8.3 ± 1.58 %ID/g | tissue uptake at 4 h (in vivo [2]; Kidneys uptake): 9.21 ± 2.76 %ID/g | tissue uptake at 24 h (in vivo [2]; Kidneys uptake): 4.32 ± 0.58 %ID/g | tissue uptake at 72 h (in vivo [2]; Kidneys uptake): 1.77 ± 0.25 %ID/g | tissue uptake at 120 h (in vivo [2]; Kidneys uptake): 1.16 ± 0.13 %ID/g | tissue uptake at 1 h (in vivo [2]; Lacrimal uptake): 0.51 ± 0.23 %ID/g | tissue uptake at 4 h (in vivo [2]; Lacrimal uptake): 0.39 ± 0.19 %ID/g | tissue uptake at 24 h (in vivo [2]; Lacrimal uptake): 0.05 ± 0.04 %ID/g | tissue uptake at 72 h (in vivo [2]; Lacrimal uptake): 0.01 ± 0.01 %ID/g | tissue uptake at 1 h (in vivo [2]; Liver uptake): 2.93 ± 0.51 %ID/g | tissue uptake at 4 h (in vivo [2]; Liver uptake): 2.29 ± 0.55 %ID/g | tissue uptake at 24 h (in vivo [2]; Liver uptake): 0.54 ± 0.09 %ID/g | tissue uptake at 72 h (in vivo [2]; Liver uptake): 0.22 ± 0.02 %ID/g | tissue uptake at 120 h (in vivo [2]; Liver uptake): 0.31 ± 0.3 %ID/g | tissue uptake at 1 h (in vivo [2]; Lungs uptake): 7.88 ± 1.77 %ID/g | tissue uptake at 4 h (in vivo [2]; Lungs uptake): 5.79 ± 0.44 %ID/g | tissue uptake at 24 h (in vivo [2]; Lungs uptake): 1.08 ± 0.72 %ID/g | tissue uptake at 72 h (in vivo [2]; Lungs uptake): 0.18 ± 0.02 %ID/g | tissue uptake at 120 h (in vivo [2]; Lungs uptake): 0.09 ± 0.01 %ID/g | tissue uptake at 1 h (in vivo [2]; Muscle uptake): 1.32 ± 0.19 %ID/g | tissue uptake at 4 h (in vivo [2]; Muscle uptake): 0.83 ± 0.09 %ID/g | tissue uptake at 24 h (in vivo [2]; Muscle uptake): 0.11 ± 0.02 %ID/g | tissue uptake at 72 h (in vivo [2]; Muscle uptake): 0.03 ± 0.01 %ID/g | tissue uptake at 120 h (in vivo [2]; Muscle uptake): 0.02 %ID/g | tissue uptake at 1 h (in vivo [2]; Pancreas uptake): 1.53 ± 0.22 %ID/g | tissue uptake at 4 h (in vivo [2]; Pancreas uptake): 1.24 ± 0.04 %ID/g | tissue uptake at 24 h (in vivo [2]; Pancreas uptake): 0.15 ± 0.02 %ID/g | tissue uptake at 72 h (in vivo [2]; Pancreas uptake): 0.05 ± 0.01 %ID/g | tissue uptake at 120 h (in vivo [2]; Pancreas uptake): 0.03 %ID/g | tissue uptake at 1 h (in vivo [2]; Salivary uptake): 2.55 ± 0.21 %ID/g | tissue uptake at 4 h (in vivo [2]; Salivary uptake): 1.75 ± 0.25 %ID/g | tissue uptake at 24 h (in vivo [2]; Salivary uptake): 0.45 ± 0.1 %ID/g | tissue uptake at 72 h (in vivo [2]; Salivary uptake): 0.19 ± 0.05 %ID/g | tissue uptake at 120 h (in vivo [2]; Salivary uptake): 0.11 ± 0.03 %ID/g | tissue uptake at 1 h (in vivo [2]; Seminal uptake): 1.53 ± 0.97 %ID/g | tissue uptake at 4 h (in vivo [2]; Seminal uptake): 0.9 ± 0.2 %ID/g | tissue uptake at 24 h (in vivo [2]; Seminal uptake): 0.12 ± 0.02 %ID/g | tissue uptake at 72 h (in vivo [2]; Seminal uptake): 0.05 ± 0.01 %ID/g | tissue uptake at 120 h (in vivo [2]; Seminal uptake): 0.05 ± 0.03 %ID/g | tissue uptake at 1 h (in vivo [2]; Spleen uptake): 1.53 ± 0.23 %ID/g | tissue uptake at 4 h (in vivo [2]; Spleen uptake): 1.44 ± 0.31 %ID/g | tissue uptake at 24 h (in vivo [2]; Spleen uptake): 0.48 ± 0.14 %ID/g | tissue uptake at 72 h (in vivo [2]; Spleen uptake): 0.49 ± 0.16 %ID/g | tissue uptake at 120 h (in vivo [2]; Spleen uptake): 0.69 ± 0.36 %ID/g | tissue uptake at 1 h (in vivo [2]; Stomach uptake): 0.51 ± 0.18 %ID/g | tissue uptake at 4 h (in vivo [2]; Stomach uptake): 0.45 ± 0.06 %ID/g | tissue uptake at 24 h (in vivo [2]; Stomach uptake): 0.31 ± 0.1 %ID/g | tissue uptake at 72 h (in vivo [2]; Stomach uptake): 0.07 ± 0.07 %ID/g | tissue uptake at 120 h (in vivo [2]; Stomach uptake): 0.1 ± 0.1 %ID/g | tissue uptake at 1 h (in vivo [2]; Tail uptake): 4.85 ± 1.59 %ID/g | tissue uptake at 4 h (in vivo [2]; Tail uptake): 2.21 ± 0.18 %ID/g | tissue uptake at 24 h (in vivo [2]; Tail uptake): 0.31 ± 0.1 %ID/g | tissue uptake at 72 h (in vivo [2]; Tail uptake): 0.15 ± 0.04 %ID/g | tissue uptake at 120 h (in vivo [2]; Tail uptake): 0.1 ± 0.03 %ID/g | tissue uptake at 1 h (in vivo [2]; Testes uptake): 2.26 ± 0.46 %ID/g | tissue uptake at 4 h (in vivo [2]; Testes uptake): 2.66 ± 0.41 %ID/g | tissue uptake at 24 h (in vivo [2]; Testes uptake): 0.55 ± 0.05 %ID/g | tissue uptake at 72 h (in vivo [2]; Testes uptake): 0.31 ± 0.05 %ID/g | tissue uptake at 120 h (in vivo [2]; Testes uptake): 0.22 ± 0.01 %ID/g | tissue uptake at 1 h (in vivo [2]; Thyroid uptake): 3.3 ± 0.42 %ID/g | tissue uptake at 4 h (in vivo [2]; Thyroid uptake): 2.3 ± 0.3 %ID/g | tissue uptake at 24 h (in vivo [2]; Thyroid uptake): 0.52 ± 0.08 %ID/g | tissue uptake at 72 h (in vivo [2]; Thyroid uptake): 0.24 ± 0.04 %ID/g | tissue uptake at 120 h (in vivo [2]; Thyroid uptake): 0.13 ± 0.02 %ID/g | tissue uptake at 1 h (in vivo [2]; Tumor uptake): 19 ± 5.86 %ID/g | tissue uptake at 4 h (in vivo [2]; Tumor uptake): 42.6 ± 11.6 %ID/g | tissue uptake at 24 h (in vivo [2]; Tumor uptake): 30.2 ± 2.74 %ID/g | tissue uptake at 72 h (in vivo [2]; Tumor uptake): 26.1 ± 7.29 %ID/g | tissue uptake at 120 h (in vivo [2]; Tumor uptake): 28.4 ± 5.11 %ID/g

O=C(O)CC[C@H](NC(=O)N[C@@H](CCCCNC(=O)[C@H](Cc1c2ccccc2cc2ccccc12)NC(=O)[C@H]1CC[C@H](CNC(=O)CN2CCN(CC(=O)O)CCN(CC(=O)O)CCN(CC(=O)O)CC2)CC1)C(=O)O)C(=O)O [68Ga-HTK03041, metal not drawn]
tissue uptake at 1 h (in vivo [1]; Adrenal glands uptake): 8.9 ± 2.56 %ID/g | tissue uptake at 1 h (in vivo [1]; Blood uptake): 1.43 ± 0.3 %ID/g | tissue uptake at 1 h (in vivo [1]; Bone uptake): 1.29 ± 0.45 %ID/g | tissue uptake at 1 h (in vivo [1]; Brain uptake): 0.1 ± 0.05 %ID/g | tissue uptake at 1 h (in vivo [1]; Fat uptake): 2.06 ± 0.59 %ID/g | tissue uptake at 1 h (in vivo [1]; Heart uptake): 1.82 ± 0.21 %ID/g | tissue uptake at 1 h (in vivo [1]; Intestine uptake): 1.14 ± 0.18 %ID/g | tissue uptake at 1 h (in vivo [1]; Kidneys uptake): 170 ± 26.4 %ID/g | tissue uptake at 1 h (in vivo [1]; Lacrimal uptake): 2.44 ± 1.79 %ID/g | tissue uptake at 1 h (in vivo [1]; Liver uptake): 1.38 ± 0.25 %ID/g | tissue uptake at 1 h (in vivo [1]; Lungs uptake): 4.32 ± 0.62 %ID/g | tissue uptake at 1 h (in vivo [1]; Muscle uptake): 0.75 ± 0.09 %ID/g | tissue uptake at 1 h (in vivo [1]; Pancreas uptake): 1.47 ± 0.16 %ID/g | tissue uptake at 1 h (in vivo [1]; Salivary uptake): 4.99 ± 0.88 %ID/g | tissue uptake at 1 h (in vivo [1]; Seminal uptake): 1.03 ± 0.27 %ID/g | tissue uptake at 1 h (in vivo [1]; Spleen uptake): 8.95 ± 3.22 %ID/g | tissue uptake at 1 h (in vivo [1]; Stomach uptake): 0.41 ± 0.11 %ID/g | tissue uptake at 1 h (in vivo [1]; Tail uptake): 1.36 ± 0.45 %ID/g | tissue uptake at 1 h (in vivo [1]; Testes uptake): 1.34 ± 0.22 %ID/g | tissue uptake at 1 h (in vivo [1]; Thyroid uptake): 2.48 ± 0.44 %ID/g | tissue uptake at 1 h (in vivo [1]; Tumor uptake): 23.1 ± 6.11 %ID/g | excreta dose per gram or mL at 1 h (in vivo [1]; Urine uptake): 173 ± 93 %ID/g

O=C(O)CCC[C@H](NC(=O)N[C@@H](CCCCNC(=O)[C@H](Cc1c2ccccc2cc2ccccc12)NC(=O)[C@H]1CC[C@H](CNC(=O)CN2CCN(CC(=O)O)CCN(CC(=O)O)CCN(CC(=O)O)CC2)CC1)C(=O)O)C(=O)O [HTK03149]
uptake in kidney and salivary gland compared to HTK03041 [3]: significantly decreases the uptake
